This note sets out measurements from patent publication US8242083B2, “Kinase substrates” (PerkinElmer Health Sciences, Inc., priority 2008, dated 2012).

What all share (type): biochemical
In assay [1] the target is ABL (Homo sapiens, UniProt P00519). In words: TR-FRET kinase assay, ABL. The settings on record: Kinase Concentration 0.25 nM; 50 nM ULight-labeled substrate, 200 micromolar ATP, 2 hours. The procedure:
(§1) TR-FRET kinase assays are performed under standardized conditions: various individual kinases are incubated with 50 nM of kinase substrate BRB1 labeled with the TR-FRET acceptor dye ULight (PerkinElmer) and 200 micromolar ATP in 10 μL of kinase assay buffer (50 mM HEPES pH7.5, 10 mM MgCl2, 3 mM MnCl2, 1 mM EGTA, 2 mM DTT and 0.01% Tween-20) for 2 hours at room temperature. Reactions are stopped with EDTA, and anti-phospho-tyrosine antibodies (clone PT66) labeled with the TR-FRET europium chelate donor dye are added to a final concentration of 2 nM in a final volume of 20 μL. The TR-FRET signal emitted at 665 nm is read one hour after the addition of antibodies using a TR-FRET plate reader such as the Envision® Multilabel Plate reader (PerkinElmer). The emitted signal at 665 nm is proportional to the extent of peptide phosphorylation, Control reactions indicative of background are performed excluding ATP from the reaction.
(§2) Assay conditions are identical to those used described for FIG. 1.
In general terms: Time-resolved FRET reads energy transfer from a long-lived donor to a nearby acceptor.

Assay [2] concerns the target BRK (Homo sapiens, UniProt Q13882). Put plainly: TR-FRET kinase assay, BRK. The settings on record: Kinase Concentration 3 nM; 50 nM ULight-labeled substrate, 200 micromolar ATP, 2 hours. The procedure:
as §1, §2

Assay [3] deals with BTK (Homo sapiens, UniProt Q06187). Put plainly: TR-FRET kinase assay, BTK. The settings on record: Kinase Concentration 0.25 nM; 50 nM ULight-labeled substrate, 200 micromolar ATP, 2 hours. The procedure: as §1, §2
Assay [4] addresses FES (Homo sapiens, UniProt P07332). Put plainly: TR-FRET kinase assay, FES. The settings on record: Kinase Concentration 1 nM; 50 nM ULight-labeled substrate, 200 micromolar ATP, 2 hours. The procedure:
as §1, §2

For assay [5], the target named is FGR (Homo sapiens, UniProt P09769). In words: TR-FRET kinase assay, FGR. The settings on record: Kinase Concentration 0.1 nM; 50 nM ULight-labeled substrate, 200 micromolar ATP, 2 hours. The procedure:
as §1, §2

Assay [6] concerns the target SYK (Homo sapiens, UniProt P43405). In words: TR-FRET kinase assay, SYK. The settings on record: Kinase Concentration 0.5 nM; 50 nM ULight-labeled substrate, 200 micromolar ATP, 2 hours. Here is the method:
as §1, §2

For assay [7], the target named is T1, TEC (Homo sapiens, UniProt P42680).
T1 sequence (P42680 1-631): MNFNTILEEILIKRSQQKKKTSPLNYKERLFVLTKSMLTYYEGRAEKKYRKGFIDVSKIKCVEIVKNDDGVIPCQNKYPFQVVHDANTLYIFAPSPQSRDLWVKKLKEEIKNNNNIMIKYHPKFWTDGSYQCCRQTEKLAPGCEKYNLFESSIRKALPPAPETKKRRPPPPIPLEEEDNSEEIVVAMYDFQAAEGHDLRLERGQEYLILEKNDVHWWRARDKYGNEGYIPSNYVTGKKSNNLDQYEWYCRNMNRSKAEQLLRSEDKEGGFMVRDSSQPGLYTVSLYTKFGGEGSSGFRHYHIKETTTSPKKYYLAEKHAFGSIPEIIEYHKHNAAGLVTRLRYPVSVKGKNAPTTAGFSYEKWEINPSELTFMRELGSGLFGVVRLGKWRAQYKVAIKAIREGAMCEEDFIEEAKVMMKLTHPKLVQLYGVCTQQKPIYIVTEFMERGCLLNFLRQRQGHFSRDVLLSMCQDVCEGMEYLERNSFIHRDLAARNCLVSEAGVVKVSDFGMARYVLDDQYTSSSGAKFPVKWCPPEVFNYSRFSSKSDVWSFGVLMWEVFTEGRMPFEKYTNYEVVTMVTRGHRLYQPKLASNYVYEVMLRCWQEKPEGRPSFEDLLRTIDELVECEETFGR
In words: TR-FRET kinase assay, TEC. The settings on record: Kinase Concentration 0.5 nM; 50 nM ULight-labeled substrate, 200 micromolar ATP, 2 hours. The procedure: as §1, §2

The target of assay [8] is T2, EphA3 (Homo sapiens, UniProt P29320).
T2 sequence (P29320 21-983): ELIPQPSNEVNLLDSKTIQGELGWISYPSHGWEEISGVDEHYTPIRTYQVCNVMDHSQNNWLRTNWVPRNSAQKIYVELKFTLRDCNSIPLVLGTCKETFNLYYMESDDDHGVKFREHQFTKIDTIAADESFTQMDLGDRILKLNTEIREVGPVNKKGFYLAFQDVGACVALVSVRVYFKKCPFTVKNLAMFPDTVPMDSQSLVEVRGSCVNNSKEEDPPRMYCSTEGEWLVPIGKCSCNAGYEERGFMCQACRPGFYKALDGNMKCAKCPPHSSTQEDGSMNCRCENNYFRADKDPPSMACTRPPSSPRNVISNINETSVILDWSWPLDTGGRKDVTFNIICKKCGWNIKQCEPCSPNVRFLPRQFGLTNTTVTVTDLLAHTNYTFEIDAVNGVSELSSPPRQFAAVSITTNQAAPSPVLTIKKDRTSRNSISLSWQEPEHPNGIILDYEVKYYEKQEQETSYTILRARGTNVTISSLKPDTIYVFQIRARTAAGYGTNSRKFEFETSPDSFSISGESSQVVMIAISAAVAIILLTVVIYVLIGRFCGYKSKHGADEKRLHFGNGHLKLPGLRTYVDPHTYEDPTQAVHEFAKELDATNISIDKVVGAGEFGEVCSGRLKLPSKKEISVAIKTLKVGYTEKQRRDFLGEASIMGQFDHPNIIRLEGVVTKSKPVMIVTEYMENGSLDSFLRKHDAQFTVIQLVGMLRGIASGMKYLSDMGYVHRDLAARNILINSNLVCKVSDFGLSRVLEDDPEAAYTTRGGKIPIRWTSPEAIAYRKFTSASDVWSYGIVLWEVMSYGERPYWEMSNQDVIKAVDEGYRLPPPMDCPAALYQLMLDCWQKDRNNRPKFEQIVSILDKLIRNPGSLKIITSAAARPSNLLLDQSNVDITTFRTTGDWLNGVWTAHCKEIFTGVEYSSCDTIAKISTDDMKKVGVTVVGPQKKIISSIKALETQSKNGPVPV
Put plainly: TR-FRET kinase assay, EphA3. The settings on record: Kinase Concentration 0.5 nM; 50 nM ULight-labeled substrate, 200 micromolar ATP, 2 hours. Here is the method: as §1, §2

The target in assay [9] is FGFR3 (Homo sapiens, UniProt P22607). In words: TR-FRET kinase assay, FGFR3. The settings on record: Kinase Concentration 0.25 nM; 50 nM ULight-labeled substrate, 200 micromolar ATP, 2 hours. The procedure: as §1, §2
Assay [10] has as its target PDGFRβ (Homo sapiens, UniProt P09619). In words: TR-FRET kinase assay, PDGFRβ. The settings on record: Kinase Concentration 0.25 nM; 50 nM ULight-labeled substrate, 200 micromolar ATP, 2 hours. Here is the method: as §1, §2
Assay [11] deals with TIE2 (Homo sapiens, UniProt Q02763). Put plainly: TR-FRET kinase assay, TIE2. The settings on record: Kinase Concentration 0.5 nM; 50 nM ULight-labeled substrate, 200 micromolar ATP, 2 hours. Here is the method: as §1, §2
The target in assay [12] is TRKC (NTRK3) (Homo sapiens, UniProt Q16288). In words: TR-FRET kinase assay, TRKC (NTRK3). The settings on record: Kinase Concentration 0.5 nM; 50 nM ULight-labeled substrate, 200 micromolar ATP, 2 hours. The procedure: as §1, §2

PDGFRβ, sequence (P09619 33-1106, species assumed): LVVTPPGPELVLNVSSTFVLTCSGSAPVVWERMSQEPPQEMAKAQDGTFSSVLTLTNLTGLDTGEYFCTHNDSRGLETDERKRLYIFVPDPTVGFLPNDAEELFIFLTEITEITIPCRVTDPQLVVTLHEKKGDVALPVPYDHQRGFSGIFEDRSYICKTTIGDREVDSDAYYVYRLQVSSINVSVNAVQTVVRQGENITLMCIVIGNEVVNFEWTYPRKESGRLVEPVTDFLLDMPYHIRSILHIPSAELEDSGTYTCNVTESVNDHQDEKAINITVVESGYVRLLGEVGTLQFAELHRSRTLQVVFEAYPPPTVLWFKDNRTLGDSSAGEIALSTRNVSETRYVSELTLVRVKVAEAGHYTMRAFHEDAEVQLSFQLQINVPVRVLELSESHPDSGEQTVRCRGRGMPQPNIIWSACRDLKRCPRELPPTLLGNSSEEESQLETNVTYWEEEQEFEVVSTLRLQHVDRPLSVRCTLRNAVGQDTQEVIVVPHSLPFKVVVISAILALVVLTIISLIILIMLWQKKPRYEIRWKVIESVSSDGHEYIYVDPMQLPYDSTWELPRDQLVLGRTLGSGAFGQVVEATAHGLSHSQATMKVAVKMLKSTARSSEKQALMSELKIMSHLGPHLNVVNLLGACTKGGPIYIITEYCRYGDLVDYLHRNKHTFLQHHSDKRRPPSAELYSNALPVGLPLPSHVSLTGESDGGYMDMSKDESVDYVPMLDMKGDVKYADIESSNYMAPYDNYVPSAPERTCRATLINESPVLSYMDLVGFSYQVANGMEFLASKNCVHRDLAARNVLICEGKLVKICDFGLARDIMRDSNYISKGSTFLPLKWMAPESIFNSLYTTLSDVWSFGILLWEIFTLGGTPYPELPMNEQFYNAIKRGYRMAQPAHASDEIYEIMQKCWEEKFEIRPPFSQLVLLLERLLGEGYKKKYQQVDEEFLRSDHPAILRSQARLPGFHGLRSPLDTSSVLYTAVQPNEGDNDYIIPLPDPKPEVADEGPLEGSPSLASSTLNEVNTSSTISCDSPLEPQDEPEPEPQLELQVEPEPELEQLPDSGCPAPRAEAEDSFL
TIE2, sequence (Q02763 23-1124, species assumed): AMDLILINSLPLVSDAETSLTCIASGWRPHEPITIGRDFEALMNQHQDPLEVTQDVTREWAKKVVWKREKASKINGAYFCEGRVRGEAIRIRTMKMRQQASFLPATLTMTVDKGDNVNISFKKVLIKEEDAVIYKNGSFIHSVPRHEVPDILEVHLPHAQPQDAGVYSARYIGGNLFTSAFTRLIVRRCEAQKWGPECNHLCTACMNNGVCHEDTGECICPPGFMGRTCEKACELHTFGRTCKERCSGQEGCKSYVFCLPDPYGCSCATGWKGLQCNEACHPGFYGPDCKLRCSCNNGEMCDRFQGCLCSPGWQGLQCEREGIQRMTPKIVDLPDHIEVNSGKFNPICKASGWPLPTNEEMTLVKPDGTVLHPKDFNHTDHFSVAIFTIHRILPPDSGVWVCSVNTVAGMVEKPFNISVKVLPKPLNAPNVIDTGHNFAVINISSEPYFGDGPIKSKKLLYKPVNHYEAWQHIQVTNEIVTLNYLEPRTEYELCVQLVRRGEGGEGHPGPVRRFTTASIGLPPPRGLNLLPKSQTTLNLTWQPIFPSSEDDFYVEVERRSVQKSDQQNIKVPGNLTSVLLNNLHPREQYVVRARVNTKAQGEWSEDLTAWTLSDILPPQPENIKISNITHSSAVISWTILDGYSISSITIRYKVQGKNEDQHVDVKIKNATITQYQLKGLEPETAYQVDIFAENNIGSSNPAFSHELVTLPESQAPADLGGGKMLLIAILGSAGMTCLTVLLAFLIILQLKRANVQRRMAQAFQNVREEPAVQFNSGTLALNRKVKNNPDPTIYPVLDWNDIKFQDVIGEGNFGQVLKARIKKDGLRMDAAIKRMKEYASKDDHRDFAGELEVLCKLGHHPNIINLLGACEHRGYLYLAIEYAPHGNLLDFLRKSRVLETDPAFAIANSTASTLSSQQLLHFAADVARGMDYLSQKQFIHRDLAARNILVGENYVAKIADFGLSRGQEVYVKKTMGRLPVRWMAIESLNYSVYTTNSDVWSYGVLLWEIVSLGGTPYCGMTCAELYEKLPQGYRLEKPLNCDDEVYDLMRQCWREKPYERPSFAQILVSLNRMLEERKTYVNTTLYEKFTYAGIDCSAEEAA
BTK, sequence (Q06187 whole entry, species assumed): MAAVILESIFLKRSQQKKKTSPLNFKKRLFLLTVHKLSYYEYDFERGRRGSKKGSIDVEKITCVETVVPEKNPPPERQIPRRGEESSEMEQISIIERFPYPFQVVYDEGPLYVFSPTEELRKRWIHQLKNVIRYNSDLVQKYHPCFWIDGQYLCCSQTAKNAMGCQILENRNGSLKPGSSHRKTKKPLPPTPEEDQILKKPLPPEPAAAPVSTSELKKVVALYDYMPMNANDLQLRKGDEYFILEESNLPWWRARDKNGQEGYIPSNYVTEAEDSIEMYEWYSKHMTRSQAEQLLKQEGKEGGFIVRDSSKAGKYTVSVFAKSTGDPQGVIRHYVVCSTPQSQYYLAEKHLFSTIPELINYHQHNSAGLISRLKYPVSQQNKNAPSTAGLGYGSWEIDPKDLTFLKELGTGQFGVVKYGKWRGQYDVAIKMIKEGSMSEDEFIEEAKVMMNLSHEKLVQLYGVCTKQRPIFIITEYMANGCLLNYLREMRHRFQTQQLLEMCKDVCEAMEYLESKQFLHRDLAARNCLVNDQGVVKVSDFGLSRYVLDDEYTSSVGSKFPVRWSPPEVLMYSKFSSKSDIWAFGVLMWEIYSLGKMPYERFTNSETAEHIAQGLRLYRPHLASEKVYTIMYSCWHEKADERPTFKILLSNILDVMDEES
FGFR3, sequence (P22607 23-806, species assumed): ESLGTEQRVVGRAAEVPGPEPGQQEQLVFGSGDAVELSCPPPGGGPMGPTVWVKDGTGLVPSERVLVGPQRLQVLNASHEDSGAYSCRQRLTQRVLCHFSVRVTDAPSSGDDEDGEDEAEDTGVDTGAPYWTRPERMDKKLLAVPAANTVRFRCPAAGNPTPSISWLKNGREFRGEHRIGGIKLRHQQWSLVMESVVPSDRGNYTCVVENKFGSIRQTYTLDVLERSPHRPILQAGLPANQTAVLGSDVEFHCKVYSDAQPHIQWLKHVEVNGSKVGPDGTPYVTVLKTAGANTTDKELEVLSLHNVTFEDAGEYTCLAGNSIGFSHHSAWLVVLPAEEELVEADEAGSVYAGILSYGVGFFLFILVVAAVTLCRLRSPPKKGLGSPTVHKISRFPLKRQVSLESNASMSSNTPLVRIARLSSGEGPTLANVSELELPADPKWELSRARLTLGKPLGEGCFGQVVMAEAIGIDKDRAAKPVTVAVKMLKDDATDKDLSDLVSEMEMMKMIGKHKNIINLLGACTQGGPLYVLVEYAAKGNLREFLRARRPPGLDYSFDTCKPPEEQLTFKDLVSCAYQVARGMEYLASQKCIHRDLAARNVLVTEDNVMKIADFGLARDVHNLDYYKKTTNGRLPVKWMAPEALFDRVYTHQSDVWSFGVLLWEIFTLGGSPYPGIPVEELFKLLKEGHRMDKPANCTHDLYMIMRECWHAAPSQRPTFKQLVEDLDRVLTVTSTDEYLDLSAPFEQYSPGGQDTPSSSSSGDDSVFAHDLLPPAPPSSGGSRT
ABL, sequence (P00519 whole entry, species assumed): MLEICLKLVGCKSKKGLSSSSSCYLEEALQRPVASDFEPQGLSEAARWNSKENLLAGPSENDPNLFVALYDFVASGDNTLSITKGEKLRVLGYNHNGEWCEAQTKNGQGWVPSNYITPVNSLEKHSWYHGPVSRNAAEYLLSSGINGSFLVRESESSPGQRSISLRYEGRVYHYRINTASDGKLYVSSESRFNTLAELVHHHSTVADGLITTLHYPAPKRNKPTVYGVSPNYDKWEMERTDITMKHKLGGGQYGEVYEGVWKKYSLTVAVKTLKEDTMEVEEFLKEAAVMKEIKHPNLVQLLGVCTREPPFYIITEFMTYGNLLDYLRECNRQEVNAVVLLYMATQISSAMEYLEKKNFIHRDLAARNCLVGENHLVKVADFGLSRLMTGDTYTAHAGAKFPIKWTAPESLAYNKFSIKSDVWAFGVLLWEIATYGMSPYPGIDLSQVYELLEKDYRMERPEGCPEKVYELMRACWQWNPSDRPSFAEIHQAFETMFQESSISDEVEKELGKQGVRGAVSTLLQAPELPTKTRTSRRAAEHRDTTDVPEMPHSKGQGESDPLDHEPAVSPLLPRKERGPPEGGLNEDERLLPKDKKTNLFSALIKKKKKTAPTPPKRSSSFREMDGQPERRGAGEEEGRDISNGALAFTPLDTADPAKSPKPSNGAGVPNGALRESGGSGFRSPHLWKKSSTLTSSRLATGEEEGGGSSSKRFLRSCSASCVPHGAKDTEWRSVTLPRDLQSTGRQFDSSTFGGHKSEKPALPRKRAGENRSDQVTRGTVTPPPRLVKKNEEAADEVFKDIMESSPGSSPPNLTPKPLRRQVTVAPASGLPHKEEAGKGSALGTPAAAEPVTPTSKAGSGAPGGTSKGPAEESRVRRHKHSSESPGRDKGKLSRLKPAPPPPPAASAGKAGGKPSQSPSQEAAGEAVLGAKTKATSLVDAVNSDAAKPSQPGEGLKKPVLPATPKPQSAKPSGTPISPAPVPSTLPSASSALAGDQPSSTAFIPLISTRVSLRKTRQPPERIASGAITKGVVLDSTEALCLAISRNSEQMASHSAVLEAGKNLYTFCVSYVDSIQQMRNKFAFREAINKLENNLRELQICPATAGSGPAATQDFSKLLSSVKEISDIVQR

Take “C AYE AYE AYE K EYA EYA EYA K AYA EYE R (CAYEAYEAYEKEYAEYAEYAKAYAEYER; tyrosine kinase substrate peptide) [BRB1]”: the “Signal to Noise ratio with BRB1 Peptide” value is given as 4.1 in assay [1]; 2.4 in [2]; 6.8 in [3]; 24.9 in [4]; 29.3 in assay [5]; 24.6 in [6]. For the same sequence, the “Signal to Noise ratio with BRB1 Peptide” value in assay [7] was found to be 18.6; in assay [8], 22.4; in [9] it was 24.4; in assay [10], 4.7; in [11] it was 17.7; in [12] it was 6.4.
